Experimental findings from patent publication US20190284544 are described below.

The subject of data set [1] is homologous regions of other CAPN members.
Data set [2] concerns Cyclic CAPN5 p.370-80.
Data set [3] relates to CAPN5-370-380 peptide (RQNRGGGCINH).
The target of data set [4] is CAPN5p.372-378 peptide (UniProt O15484).
Data set [5] has as its system CAPN5-370-390 peptide.
The subject of data set [6] is EPLFAERK peptide.
Data set [7] relates to CAPN14 peptide.
For data set [8], the system named is PDGFB (155-170) peptide.
Data set [9] deals with Pep-1-Mod.
Sequence of Pep-1-Mod (chain, as listed by the source): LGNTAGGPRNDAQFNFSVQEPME
The subject of data set [10] is Pep-2-Mod.

Sequence of CAPN5-R243L (chain, as listed by the source R243L): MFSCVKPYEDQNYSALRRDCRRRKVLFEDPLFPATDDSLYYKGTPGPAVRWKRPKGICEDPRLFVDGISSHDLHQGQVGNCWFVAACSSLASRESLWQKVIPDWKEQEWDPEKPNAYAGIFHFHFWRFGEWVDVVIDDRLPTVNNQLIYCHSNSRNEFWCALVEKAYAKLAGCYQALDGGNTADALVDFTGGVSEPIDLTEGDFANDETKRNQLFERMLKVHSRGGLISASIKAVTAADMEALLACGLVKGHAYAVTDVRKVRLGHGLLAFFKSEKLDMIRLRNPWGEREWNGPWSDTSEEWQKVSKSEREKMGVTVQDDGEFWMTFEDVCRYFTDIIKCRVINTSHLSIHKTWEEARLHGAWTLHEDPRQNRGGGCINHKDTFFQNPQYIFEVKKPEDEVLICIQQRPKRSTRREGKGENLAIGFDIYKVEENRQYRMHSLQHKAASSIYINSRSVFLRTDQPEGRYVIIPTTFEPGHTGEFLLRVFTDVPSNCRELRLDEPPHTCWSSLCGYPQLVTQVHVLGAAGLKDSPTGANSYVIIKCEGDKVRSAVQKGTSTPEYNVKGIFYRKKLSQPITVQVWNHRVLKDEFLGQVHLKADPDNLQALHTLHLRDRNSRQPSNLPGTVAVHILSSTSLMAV
Sequence of CAPN5-370-390 peptide (chain, as listed by the source): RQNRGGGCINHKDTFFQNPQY
Sequence of CAPN14 peptide (chain, as listed by the source): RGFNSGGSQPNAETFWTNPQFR
Sequence of Pep-2-Mod (chain, as listed by the source): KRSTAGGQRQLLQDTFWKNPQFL
Sequence of CAPN1 WT (P07384 2-714): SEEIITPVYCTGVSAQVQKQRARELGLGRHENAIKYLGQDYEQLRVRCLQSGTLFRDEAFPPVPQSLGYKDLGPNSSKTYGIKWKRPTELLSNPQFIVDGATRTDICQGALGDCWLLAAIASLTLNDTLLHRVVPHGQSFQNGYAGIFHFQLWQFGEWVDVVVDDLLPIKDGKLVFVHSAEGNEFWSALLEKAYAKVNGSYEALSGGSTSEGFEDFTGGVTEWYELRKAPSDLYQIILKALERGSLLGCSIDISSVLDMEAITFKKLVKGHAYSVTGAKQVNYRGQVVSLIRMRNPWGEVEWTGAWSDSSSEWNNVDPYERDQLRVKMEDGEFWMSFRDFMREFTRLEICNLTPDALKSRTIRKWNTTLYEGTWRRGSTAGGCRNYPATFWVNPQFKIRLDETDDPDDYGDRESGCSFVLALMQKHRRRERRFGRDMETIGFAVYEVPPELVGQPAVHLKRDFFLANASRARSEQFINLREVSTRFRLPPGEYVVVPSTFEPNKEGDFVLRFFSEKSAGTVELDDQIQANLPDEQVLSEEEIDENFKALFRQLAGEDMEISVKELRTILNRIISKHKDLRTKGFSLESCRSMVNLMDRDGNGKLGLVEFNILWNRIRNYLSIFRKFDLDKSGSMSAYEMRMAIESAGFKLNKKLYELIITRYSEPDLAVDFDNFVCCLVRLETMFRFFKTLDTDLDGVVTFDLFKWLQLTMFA

Take CAPN1 WT: in data set [1], the proteolysis entry is “CAPN1 does not appear to proteolyze these regions”.
Turning to CAPN5 WT (Homo sapiens calpain 5), in data set [2], the “initial reaction rate (proteolysis of CAPN5p.370-80 by CAPN5 WT)” value was “Addition of 10 µM Cyclic CAPN5 p.370-80 slows the initial reaction rate by 40%”; the “initial velocity versus substrate concentration, with and without 10 µM cyclic peptide” value is given as “Increasing concentrations of substrate does not overcome inhibition by cyclic peptide”. For the same substance, in data set [3], the “cleavage (change in fluorescence)” value is “the CAPN5-370-380 fragment was the most sensitive to cleavage by both WT and R243L CAPN5”; the “cleavage (fluorescence)” value is “rapid and high cleavage of the 11 aa peptide”; the “fluorescent intensity (FRET substrate proteolysis)” value was “CAPN5-WT proteolyzes the substrate, CAPN5 (p370-380), at a higher rate than other peptides”; the “proteolysis (fluorescence)” value is “The peptide shows high proteolysis when incubated with CAPN5-WT”. Also, the “cleavage (fluorescence)” value in data set [4] is on record as “There was mild cleavage of the 7 aa peptide was observed”. Also, in data set [5], the “cleavage (fluorescence)” value was “The 21 aa peptide was cleaved slower and does not show cleavage substrate inhibition”. Moreover, in [6], the proteolysis result is reported as “it is not proteolyzed by CAPN5” and the “proteolysis (fluorescence)” value is on record as “very limited proteolysis when incubated with CAPN5-WT”. Further, in [1], the proteolysis entry is recorded as “CAPN5 did not proteolyze homologous regions of other CAPN members as well as it proteolyzed its own site”. Also, in data set [7], the proteolysis entry is “there was some proteolysis of the CAPN14 peptide”.
Consider CAPN5-R243L, for which the “cleavage (change in fluorescence)” value in data set [3] was “the CAPN5-370-380 fragment was the most sensitive to cleavage by both WT and R243L CAPN5”. Moreover, the “fluorescent intensity (FRET substrate proteolysis)” value is “the greatest fluorescent intensity is detected with substrates CAPN5 (p370-390), CAPN5 (370-380), and PDGFB (155-170)” in data set [3]; “the greatest fluorescent intensity is detected with substrates CAPN5 (p370-390), CAPN5 (370-380), and PDGFB (155-170)” in [5]; “the greatest fluorescent intensity is detected with substrates CAPN5 (p370-390), CAPN5 (370-380), and PDGFB (155-170)” in data set [8].
Consider MBP-CAPN5 WT, for which the “reaction rate (initial velocity of proteolysis)” value in data set [9] and in data set [10] was “Modification of the amino acids slows the reaction rate” each time.
